± gives the uncertainty stated by the source.
Assay: self-splicing fitness, log relative to wild type (ln ratio); higher = more splicing; Tetrahymena group I intron in knt gene, E. coli kanamycin selection, DiMSum; sequences stand for … in CUCUCU…GGAGGGAAAAGUUAUCAGGCAUGCACCUGGUAGCUAGUCUUUAAACCAAUAGAUUGCAUCGGUUUAAAAGGCAAGACCGUCAAAUUGCGGGAAAGGGGUCAACAGCCGUUCAGUACCAAGUCUCAGGGGAAACUUUGAGAUGGCCUUGCAAAGGGUAUGGUAAUAAGCUGACGGACAUGGUCCUAACCACGCAGCCAAGUCCUAAGUCAACAGAUCUUCUGUUGAUAUGGAUGCAGUUCACAGACUAAAUGUCGGUCGGGGAAGAUGUAUUCUUCUCAUAAGAUAUAGUCGGACCUCUCCUUAAUGGGAGCUAGCGGAUGAAGUGAUGCAACACUGGAGCCGCUGGGAACUAAUUUGUAUGCGAAAGUAUAUUGAUUAGUUUUGGAGUACUCGUGGUCG
How it was run: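 Pooled colonies went to amplicon sequencing on an Illumina HiSeq 2500 after six replicate transformations. The plates were LB agar with 100 μg/mL carbenicillin, 50 μM IPTG and 0.2% rhamnose, with or without 25 μg/mL kanamycin, incubated overnight at 37°C or 30°C. The E. coli BL21(DE3) library had all eight P1ex-region intron nucleotides randomised, the intron placed in the knt kanamycin-resistance gene on pET-22b(+). DiMSum fitness is the error-weighted combination of replicate fold changes, kanamycin against none, normalised to wild type.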

| Sequence | self-splicing fitness (ln) (30 °C) | self-splicing fitness (ln) (37 °C) |
| --- | --- | --- |
| AAUAAGCAAUAUUACGUUGG | -2.74 ± 0.28 | -3 ± 0.38 |
| AAUAAGCAAUAUUACGUUUG | -3.16 ± 0.11 | -1.36 ± 0.1 |
| AAUCAGCAAUAUUACGAACC | -0.433 ± 0.11 | 0.499 ± 0.18 |
| AAUCAGCAAUAUUACGACCA | -0.116 ± 0.1 | 0.885 ± 0.12 |
| AAUCAGCAAUAUUACGAGAU | -2.72 ± 0.11 | -0.708 ± 0.1 |
| AAUCAGCAAUAUUACGAUAC | -0.844 ± 0.081 | -0.307 ± 0.11 |
| AAUCAGCAAUAUUACGAUCA | 0.364 ± 0.09 | 0.109 ± 0.11 |
| AAUCAGCAAUAUUACGCAUC | -0.287 ± 0.082 | 0.0734 ± 0.094 |
| AAUCAGCAAUAUUACGCCCA | -0.426 ± 0.16 | 0.216 ± 0.21 |
| AAUCAGCAAUAUUACGCCGU | -0.744 ± 0.085 | -0.531 ± 0.099 |
| AAUCAGCAAUAUUACGCCUA | -0.0982 ± 0.08 | 0.103 ± 0.09 |
| AAUCAGCAAUAUUACGCGAG | -0.887 ± 0.068 | -1.07 ± 0.088 |
| AAUCAGCAAUAUUACGCGUG | -0.227 ± 0.074 | 0.204 ± 0.085 |
| AAUCAGCAAUAUUACGGAAC | -1.37 ± 0.064 | -0.769 ± 0.093 |
| AAUCAGCAAUAUUACGGCAG | -1 ± 0.095 | -1.32 ± 0.11 |
| AAUCAGCAAUAUUACGGGUC | -2.03 ± 0.086 | -1.76 ± 0.11 |
| AAUCAGCAAUAUUACGGUUA | -0.439 ± 0.08 | -0.408 ± 0.066 |
| AAUCAGCAAUAUUACGGUUG | -1.91 ± 0.082 | -0.913 ± 0.1 |
| AAUCAGCAAUAUUACGUAAA | -0.168 ± 0.067 | 0.573 ± 0.099 |

| Sequence | self-splicing fitness (ln) (30 °C) | self-splicing fitness (ln) (37 °C) |
| --- | --- | --- |
| AAUCAGCAAUAUUACGUAGU | -0.0974 ± 0.059 | 0.211 ± 0.074 |
| AAUCAGCAAUAUUACGUCCC | -0.818 ± 0.1 | 0.164 ± 0.14 |
| AAUCAGCAAUAUUACGUCGC | -2.06 ± 0.17 | -1.24 ± 0.17 |
| AAUCAGCAAUAUUACGUGAU | -0.823 ± 0.048 | -0.268 ± 0.067 |
| AAUCAGCAAUAUUACGUGCC | -1.4 ± 0.14 | -0.598 ± 0.16 |
| AAUCAGCAAUAUUACGUUCU | 0.0868 ± 0.061 | 0.0857 ± 0.085 |
| AAUGAGCAAUAUUACGAGAG | – | -2.7 ± 0.41 |
| AAUGAGCAAUAUUACGAGUG | -3.11 ± 0.27 | -2.23 ± 0.23 |
| AAUGAGCAAUAUUACGAUGA | -2.16 ± 0.12 | -1.77 ± 0.15 |
| AAUGAGCAAUAUUACGCAGC | -3.14 ± 0.44 | -2.54 ± 0.36 |
| AAUGAGCAAUAUUACGCAGG | -2.85 ± 0.14 | -3.18 ± 0.29 |
| AAUGAGCAAUAUUACGCAUG | -2.58 ± 0.17 | -0.519 ± 0.12 |
| AAUGAGCAAUAUUACGCAUU | -3.92 ± 0.47 | -2.74 ± 0.36 |
| AAUGAGCAAUAUUACGCCCG | -2.18 ± 0.43 | -1.76 ± 0.42 |
| AAUGAGCAAUAUUACGCGCA | -2.54 ± 0.34 | -1.76 ± 0.49 |
| AAUGAGCAAUAUUACGCGUU | -3.81 ± 0.27 | -2.06 ± 0.23 |
| AAUGAGCAAUAUUACGCUGA | -3.08 ± 0.38 | -2.12 ± 0.24 |
| AAUGAGCAAUAUUACGGAAU | -4.25 ± 0.37 | -2.34 ± 0.32 |
| AAUGAGCAAUAUUACGGAGU | – | -0.994 ± 0.44 |
